# Results reported in PMC4999505, “Linear ubiquitination is involved in the pathogenesis of optineurin-associated amyotrophic lateral sclerosis” (Nature Communications, 2016).
# B1: human OPTN CC2-UBAN region (residues 416–510) (domain or fragment, UniProt Q96CV9 416-510, looked up)
# chain: EKVDRAVLKELSEKLELAEKALASKQLQMDEMKQTIAKQEEDLETMTILRAQMEVYCSDFHAERAAREKIHEEKEQLALQLAVLLKENDAFEDGG
# notes: residues 445-505 modelled for the longest chain; GST was cut off with Turbo3C (HRV3C) protease; also called OPTN-UBAN; source: E. coli Rosetta 2 (DE3), purified (glutathione Sepharose 4B, on-column cleavage, Resource Q, Superdex 75)
# Experiments:
# [1] = target: T1, linear (M1-linked) tetraubiquitin (UniProt P0CG48 1-76; P0CG48 1-76; P0CG48 1-76; P0CG48 1-76); test: crystal structure; OPTN CC2-UBAN (416–510) crystallised with linear tetraubiquitin, hanging drop, 16% PEG 3350, 250 mM HCOOK, 20 °C; 2.7 Å; details: both partners purified
# T1 construct: ubiquitin, first unit of four joined head to tail (M1-linked); ubiquitin, second unit; ubiquitin, third unit; ubiquitin, fourth unit; also called linear tetraubiquitin; linear tetra-ubiquitin; source: E. coli, purified (heat treatment, HiTrap SP, Superdex 200)
# [2] = target: the molecule itself; test: as above
# T1 sequence (P0CG48 1-304, one chain of several): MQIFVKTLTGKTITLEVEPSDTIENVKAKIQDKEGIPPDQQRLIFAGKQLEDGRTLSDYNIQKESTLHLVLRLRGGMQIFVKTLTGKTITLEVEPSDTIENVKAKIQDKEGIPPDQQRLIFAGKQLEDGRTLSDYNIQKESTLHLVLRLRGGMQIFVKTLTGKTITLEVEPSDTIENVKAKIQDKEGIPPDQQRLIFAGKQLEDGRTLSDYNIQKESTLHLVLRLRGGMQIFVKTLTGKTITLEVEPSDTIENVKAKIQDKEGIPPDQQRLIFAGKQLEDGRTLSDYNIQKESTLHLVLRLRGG
binder,measurement,setting,value
B1,binding result,[1],binds
same,stoichiometry N,[2],2
